The source of these data is paper PMC9352680, “A comprehensive thermodynamic model for RNA binding by the Saccharomyces cerevisiae Pumilio protein PUF4”.

In general, Kd refers to a measure of binding affinity in units of concentration.

Where a chain is given by its changes, count along the chain named. Names may count otherwise.

The data set addresses T1, PUF4 RNA-binding domain (Saccharomyces cerevisiae, UniProt P25339 537-888).
T1 sequence: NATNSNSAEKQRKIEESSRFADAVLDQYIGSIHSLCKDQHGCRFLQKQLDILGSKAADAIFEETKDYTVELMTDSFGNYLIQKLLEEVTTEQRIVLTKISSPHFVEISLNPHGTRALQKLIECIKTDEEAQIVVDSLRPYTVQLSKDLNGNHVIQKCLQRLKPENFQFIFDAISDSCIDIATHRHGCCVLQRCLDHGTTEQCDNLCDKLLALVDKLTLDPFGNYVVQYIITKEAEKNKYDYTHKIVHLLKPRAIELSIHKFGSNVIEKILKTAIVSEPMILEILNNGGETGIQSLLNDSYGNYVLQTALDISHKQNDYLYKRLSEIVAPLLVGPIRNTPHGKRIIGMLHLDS
Kind of data set: Mg; RNA-MaP; 20 mM Na-HEPES pH 7.4, 30 mM KOAc, 0.75 mM MgCl2, 0.1% Tween-20, 5% glycerol, 0.1 mg/mL BSA, 2 mM DTT; 25 C; 0.0125-409.6 nM protein. The conditions noted are these: tags: N-His6-TEV cleaved; C-SNAP kept, Cy3B-labelled; label: tethered on chip by stalled RNA polymerase.

B1: Ie_S2_P3E.2_K3.1_C3.2_H3.1_A3.1_F3.1_[+8TCTC]_T3.2 (ssRNA)
RNA: UUUGAUUAAUAUGAUAUCGUUCUUUCUCUUGUAUAUAUCUCUAUUCUUUCUCGAUAUCAUAUUAAUCUUU
With B1, the affinity, expressed as Kd, was 3.5 nM. In other words, the single-digit nanomolar range.

B2: Ie_S2_P3E.2_K3.1_C3.2_H3.1_A3.1_F3.1_[+8CCTC]_T3.2 (ssRNA)
RNA: B1 RNA with U38C
B2 registered a Kd of 4.3 nM. The Kd values of the last two molecules are within 1.5-fold of each other.

B3: Ie_S2_P3E.2_K3.1_C3.2_H3.1_A3.1_F3.1_[+8TTCC]_T3.2 (ssRNA)
RNA: B1 RNA with C39U, U40C
In the case of B3, the affinity, expressed as Kd, was 2.56 nM.

B4: Ie_S2_P4E.1_K4.1_C4.1_H4.1_[+1TC]_A4.1_F4.1_T4.1 (ssRNA)
RNA: UUUGAUUAAUAUGAUAUCGUUCUUUCUUUCGUAUAUUAUUCUUUCUCGAUAUCAUAUUAAUCUUU
Regarding B4, the dissociation constant Kd came out at 8.48 nM.

B5: Ie_S2_P4E.1_K4.1_C4.1_H4.1_[+1TCTCT]_A4.1_F4.1_T4.1 (ssRNA)
RNA: UUUGAUUAAUAUGAUAUCGUUCUUUCUUUCUCUGUAUAUUAUUCUUUCUCGAUAUCAUAUUAAUCUUU
For B5, binding was characterised by a dissociation constant (Kd) of 0.249 nM.

B6: Ie_S2_P4E.1_K4.1_C4.1_H4.1_[+1CCTCT]_A4.1_F4.1_T4.1 (ssRNA)
RNA: B5 RNA with U29C
Turning to B6, binding was put at a Kd of 0.166 nM.

B7: Ie_S2_P4E.1_K4.1_C4.1_H4.1_[+1TTCCT]_A4.1_F4.1_T4.1 (ssRNA)
RNA: B5 RNA with C30U, U31C
With B7, the Kd was 0.215 nM.

B8: Ic_S2_P3E.1_K3.1_C3.1_H3.1_A3.1_[T5C]_F3.1_[A8C]_T3.1 (ssRNA)
RNA: UUUGAUUAAUAUGAUAUCGUUCUUUCUUGUACAUCUUCUUUCUCGAUAUCAUAUUAAUCUUU
Consider B8, for which the affinity, expressed as Kd, was 11.1 nM.

B9: Ib_S2_P3E.1_K3.1_C3.1_H3.1_A3.1_[A6C]_F3.1_[A8G]_T3.1 (ssRNA)
RNA: B8 RNA with C32U, A33C, C35G
For B9, the Kd stood at 14.7 nM. The Kd values of the last two molecules are within 1.5-fold of each other.

B10: Ib_S2_P3E.1_K3.1_C3.1_H3.1_A3.1_[T5C]_F3.1_[A8T]_T3.1 (ssRNA)
RNA: B8 RNA with C35U
In turn, B10 had a Kd of 1.62 nM.

B11: Ia_S2_P3E.1_K3.1_C3.1_H3.1_[G2T]_A3.1_F3.1_T3.1 (ssRNA)
RNA: B8 RNA with G29U, C32U, C35A
Molecule B11 came in with a Kd of 366 nM.

B12: Ic_S2_P3E.1_K3.1_C3.1_H3.1_A3.1_[A6G]_F3.1_[A8G]_T3.1 (ssRNA)
RNA: B8 RNA with C32U, A33G, C35G
Molecule B12 displayed a Kd of 44.9 nM. This Kd lies about 8.2-fold lower than the previous one.

B13: Ie_S2_P3E.2_K3.1_C3.2_H3.1_A3.1_F3.1_[+8CT]_T3.2 (ssRNA)
RNA: UUUGAUUAAUAUGAUAUCGUUCUUUCUCUUGUAUAUACUUAUUCUUUCUCGAUAUCAUAUUAAUCUUU
Consider B13, for which the affinity, expressed as Kd, was 3.03 nM.

B14: Ie_S2_P3E.2_K3.1_C3.2_H3.1_A3.1_F3.1_[+8TT]_T3.2 (ssRNA)
RNA: B13 RNA with C38U
Molecule B14 registered a Kd of 1.56 nM.

B15: Ie_S2_P3E.2_K3.1_C3.2_H3.1_A3.1_F3.1_[+8TC]_T3.2 (ssRNA)
RNA: B13 RNA with C38U, U39C
Take B15: the Kd was found to be 2.05 nM.

B16: Ie_S2_P4E.1_K4.1_C4.1_H4.1_[+1CCT]_A4.1_F4.1_T4.1 (ssRNA)
RNA: UUUGAUUAAUAUGAUAUCGUUCUUUCUUCCUGUAUAUUAUUCUUUCUCGAUAUCAUAUUAAUCUUU
B16 came in with a Kd of 0.245 nM.

B17: Ie_S2_P4E.1_K4.1_C4.1_H4.1_[+1CTT]_A4.1_F4.1_T4.1 (ssRNA)
RNA: B16 RNA with C30U
In the case of B17, the Kd turned out to be 0.196 nM.

B18: Ie_S2_P4E.1_K4.1_C4.1_H4.1_[+1TCT]_A4.1_F4.1_T4.1 (ssRNA)
RNA: B16 RNA with C29U
The molecule B18 had a dissociation constant Kd of 0.234 nM. This Kd and that of the molecule before are within 1.5-fold of each other.

B19: Ie_S2_P4E.1_K4.1_C4.1_H4.1_[+1TTC]_A4.1_F4.1_T4.1 (ssRNA)
RNA: B16 RNA with C29U, C30U, U31C
In turn, B19 registered a Kd of 7.09 nM.

B20: Ie_S2_P3E.2_K3.1_C3.2_H3.1_A3.1_F3.1_[+8CTCTC]_T3.2 (ssRNA)
RNA: UUUGAUUAAUAUGAUAUCGUUCUUUCUCUUGUAUAUACUCUCUAUUCUUUCUCGAUAUCAUAUUAAUCUUU
In the case of B20, binding was characterised by a dissociation constant (Kd) of 5.38 nM.

B21: Ie_S2_P3E.2_K3.1_C3.2_H3.1_A3.1_F3.1_[+8TCTCT]_T3.2 (ssRNA)
RNA: B20 RNA with C38U, U39C, C40U, U41C, C42U
B21: the Kd was determined as 3.44 nM. Against the preceding molecule, the Kd is about 1.6-fold lower.

B22: Ie_S2_P3E.2_K3.1_C3.2_H3.1_A3.1_F3.1_[+8CCTCT]_T3.2 (ssRNA)
RNA: B20 RNA with U39C, C40U, U41C, C42U
Turning to B22, the Kd is 4.17 nM.

B23: Ie_S2_P3E.2_K3.1_C3.2_H3.1_A3.1_F3.1_[+8CCCTT]_T3.2 (ssRNA)
RNA: B20 RNA with U39C, C42U
B23 displayed a Kd of 3.77 nM.

B24: Ie_S2_P3E.2_K3.1_C3.2_H3.1_A3.1_F3.1_[+8TTCCT]_T3.2 (ssRNA)
RNA: B20 RNA with C38U, U41C, C42U
For the molecule B24, binding was put at a Kd of 2.02 nM.

B25: Ie_S2_P3E.2_K3.1_C3.2_H3.1_A3.1_F3.1_[+7TCC]_T3.2 (ssRNA)
RNA: UUUGAUUAAUAUGAUAUCGUUCUUUCUCUUGUAUAUUCCAUAUUCUUUCUCGAUAUCAUAUUAAUCUUU
Molecule B25 showed a Kd of 6.48 nM.

B26: Ie_S2_P3E.2_K3.1_C3.2_H3.1_A3.1_F3.1_[+8CTC]_T3.2 (ssRNA)
RNA: B25 RNA with U37A, C39U, A40C
B26 came in with a Kd of 5.33 nM.

B27: Ie_S2_P3E.2_K3.1_C3.2_H3.1_A3.1_F3.1_[+8TTC]_T3.2 (ssRNA)
RNA: B25 RNA with U37A, C38U, C39U, A40C
B27: the Kd came to 2.96 nM.

B28: Ie_S2_P3E.2_K3.1_C3.2_H3.1_A3.1_F3.1_[+8CCT]_T3.2 (ssRNA)
RNA: B25 RNA with U37A, A40U
In the case of B28, the Kd came out at 2.8 nM.

B29: Ie_S2_P3E.2_K3.1_C3.2_H3.1_A3.1_F3.1_[+7TTC]_T3.2 (ssRNA)
RNA: B25 RNA with C38U
Regarding B29, binding was put at a Kd of 9.85 nM.

B30: Ie_S2_P3E.2_K3.1_C3.2_H3.1_A3.1_F3.1_[+8TCC]_T3.2 (ssRNA)
RNA: B25 RNA with U37A, C38U, A40C
For the molecule B30, the Kd worked out at 2.84 nM.

B31: Ie_S2_P3E.2_K3.1_C3.2_H3.1_A3.1_F3.1_[+8TCT]_T3.2 (ssRNA)
RNA: B25 RNA with U37A, C38U, A40U
B31 displayed a Kd of 2.19 nM. The Kd values of the last two molecules are within 1.5-fold of each other.

B32: Ie_S2_P3E.2_K3.1_C3.2_H3.1_A3.1_F3.1_[+8CCC]_T3.2 (ssRNA)
RNA: B25 RNA with U37A, A40C
Molecule B32 gave a Kd of 7.81 nM. Against the preceding molecule, the Kd is about 3.6-fold higher.

B33: Ie_S2_P4E.1_K4.1_C4.1_H4.1_[+1T]_A4.1_F4.1_T4.1 (ssRNA)
RNA: UUUGAUUAAUAUGAUAUCGUUCUUUCUUUGUAUAUUAUUCUUUCUCGAUAUCAUAUUAAUCUUU
As to B33, the Kd stood at 0.232 nM.

B34: Ie_S2_P3E.2_K3.1_C3.2_H3.1_A3.1_F3.1_[+8C]_T3.2 (ssRNA)
RNA: UUUGAUUAAUAUGAUAUCGUUCUUUCUCUUGUAUAUACUAUUCUUUCUCGAUAUCAUAUUAAUCUUU
Consider B34, for which the Kd worked out at 2.93 nM.

B35: Ie_S2_P3E.2_K3.1_C3.2_H3.1_A3.1_F3.1_[+8T]_T3.2 (ssRNA)
RNA: B34 RNA with C38U
In turn, B35 showed a Kd of 1.66 nM.

B36: Ie_S2_P4E.1_K4.1_C4.1_H4.1_[+1CCTC]_A4.1_F4.1_T4.1 (ssRNA)
RNA: B34 RNA with C28U, U29C, U30C, G31U, U32C, A33G, C38U
Take B36: the Kd is 5.67 nM.

B37: Ie_S2_P4E.1_K4.1_C4.1_H4.1_[+1CCCT]_A4.1_F4.1_T4.1 (ssRNA)
RNA: B34 RNA with C28U, U29C, U30C, G31C, A33G, C38U
B37 showed a Kd of 0.188 nM. This Kd is about 30-fold lower than that of the molecule before.
